Reference: article PMC11480844 (2024)

B1: H2-Kb / Ed23 (parent complex)
chain 1: QQKVQQSPESLTVSEGAMASLNCTFSDRSSDNFRWYRQHSGKGLEVLVSIFSDGEKEEGSFTAHLNRASLHVFLHIREPQPSDSALYLCAVRGFWTNKVVFGTGTRLQVLP
chain 2: AQTIHQWPVAEIKAVGSPLSLGCTIKGKSSPNLYWYWQATGGTLQQLFYSITVGQVESVVQLNLSASRPKDDQFILSTEKLLLSHSGFYLCAWSPRQSSYEQYFGPGTRLTVL
chain 3: not shown
chain 4: IQKTPQIQVYSRHPPENGKPNILNCYVTQFHPPHIEIQMLKNGKKIPKVEMSDMSFSKDWSFYILAHTEFTPTETDTYACRVKHDSMAEPKTVYWDRDM
chain 5: SIINFEKL

Variants of: B1
Assay: % of reporter cells activated (NFAT-GFP), raw; further: test concentration or dose not given here
chain 5 E6C was tested, and the ratio to parent was 0.0131.
In the case of chain 5 K7I, the ratio to parent is reported as 0.142.
For chain 5 K7Q, the ratio to parent was 0.132.
chain 5 K7E showed a ratio to parent of 0.0934.
Work on chain 5 K7Y yielded a ratio to parent of 0.654.
With chain 5 K7D the ratio to parent was 0.155.
Work on chain 5 N4G yielded a ratio to parent of 0.451.
Variant chain 5 N4C has a ratio to parent of 0.108.
chain 5 N4P showed a ratio to parent of 0.71.
For chain 5 N4L, the ratio to parent was 0.631.
With chain 5 N4Q the ratio to parent was 0.0702.
Variant chain 5 L8E has a ratio to parent of 0.833.
chain 5 L8A was tested, and the ratio to parent was 0.692.
For chain 5 L8M, the ratio to parent was 0.785.
chain 5 L8T was tested, and the ratio to parent was 1.02.
Work on chain 5 L8D yielded a ratio to parent of 0.909.
chain 5 L8H gave a ratio to parent of 1.25.
With chain 5 L8S the ratio to parent was 0.828.
Work on chain 5 I3F yielded a ratio to parent of 0.433.
For chain 5 I3N, the ratio to parent was 1.38.
chain 5 I3T showed a ratio to parent of 1.22.
Work on chain 5 I3H yielded a ratio to parent of 1.55.
For chain 5 I3P, the ratio to parent was 1.29.
chain 5 I3E gave a ratio to parent of 1.21.
Variant chain 5 I3M has a ratio to parent of 1.24.
chain 5 I3C showed a ratio to parent of 1.2.
chain 5 F5L showed a ratio to parent of 1.17.
chain 5 F5Q was tested, and the ratio to parent was 1.41.
Work on chain 5 I2T yielded a ratio to parent of 1.47.
Work on chain 5 S1Q yielded a ratio to parent of 1.61.
Variant chain 5 S1E has a ratio to parent of 1.27.
chain 5 S1W was tested, and the ratio to parent was 0.515.
Work on chain 5 S1L yielded a ratio to parent of 0.454.
For chain 5 S1M, the ratio to parent was 0.348.
